Source: US20250262297A1, “ALLERGY ANTIGEN AND EPITOPE THEREOF” (HOYU CO., LTD., priority 2017, published 2025)

B1: alcohol dehydrogenase 1 (protein)
chain: MSSSTVGQVIKCKAAVSWEAGKPLVIEEVEVAPPQAGEVRLKILYTSLCHTDVYFWEAKGQTPLFPRIFGHEAGGIVESVGEGVTHLKPGDHALPVFTGECGECPHCKSEESNMCDLLRINTDRGVMIHDSQTRFSIKGQPIYHFVGTSTFSEYTVVHAGCVAKVNPAAPLDKICVLSCGICTGLGATINVAKPKPGSSVAIFGLGAVGLAAAEGARISGASRIIGVDLVSSRFEEAKKFGVNEFVNPKDHDKPVQEVIAAMTNGGVDRAVECTGSIQAMISAFECVHDGWGVAVLVGVPNKDDAFKTHPVNFLNERTLKGTFYGNYKPRTDLPSVVEKYMNGELELEKFITHTVPFSEINKAFDYMLKGESIRCIIRMGE
modifications: Glycine max
notes: spot also identified as alcohol dehydrogenase 1-like
B2: uncharacterized protein LOC100499771 (protein)
chain: MAPIAVGDVIPDGILAYLDEENKPQTVSIHSLAAGKKVIIFGVPGAFTPTCSLKHVPGFIERAEELKGKGVDEIICISVNDPFVMNSWAKTFPENKHVKFLADGAAKYTNALGLELDLTDKGLGVRSKRFALLVEDLKVKVANVESGGEFTISSAEEIIKAL
modifications: Glycine max
notes: spot also identified as hypothetical protein GLYMA_09G192800
B3: ATP synthase subunit O, mitochondrial-like (protein)
chain: MALCNRVRSGISLFTKSTFLTSQRSTLQRSLVAPFISLASRNYANVPGQKETKVKVPLALFGGSGNYASALYIASVKANAVEKVETELLQFVEAVKNSPIFSQFIRDLSVAKDVRVKVIQDICGEAKFSDVTKNFLVIVAENGRLKNIDTIAKRFAQLSMAYKGEVQATVTTVVPLPPEEEKALKETLQEIIGSGAKVHLEQKIDPSILGGLVLEFSQKVFDMSIKTRAQQMERILREPVSIANI
B4: uncharacterized protein At3g49720-like isoform X2 (protein)
chain: MTRKQASSTRRGGLSGVLHSKSKSSPLLSISLVLFVAILLILYACIGSGILGGRKDVISMAEDDFSCTFEVPSAIPVLKNAYGGSMKNVLHVGPESCSVVSKFLREGETEAWGVEPYDLDDADRNCKALVQKGIIRVADIKFPLPYRVKSFSHVIVSDALDYLSPKYINKTLPELARVSSDGIIIFTGYPGQPRAKIAPLSKFGRPHRC
B5: 14-3-3-like protein (protein)
chain: MAAAPSPREENVYMAKLAEQAERYEEMVEFMEKVSAAADNEELTVEERNLLSVAYKNVIGARRASWRIISSIEQKEESRGNEDHVSVIRDYRSKIESELSNICDGILKLLDSRLIPSASSGDSKVFYLKMKGDYHRYLAEFKTGAERKEAAESTLSAYKAAQDIANAELPPTHPIRLGLALNFSVFYYEILNSPDRACNLAKQAFDEAIAELDTLGEESYKDSTLIMQLLRDNLTLWTSDMQDDGADEIKEAAPKPDDQ
B6: P24 oleosin isoform A (protein)
chain: MTTQVPPHSVQVHTTTHRYEAGVVPPGARFEPPRYEAGVKAPSIYHSERGPTTSQVLAVLAGLPVGGILLLLAGLTLAGTLTGLAVATPLFVLFSPVLVPATVAIGLAVAGFLTSGAFGLTALSSFSWILNYIRETQPASENLAAAAKHHLAEAAEYVGQKTKEVGQKTKEVGQDIQSKAQDTREAAARDAREAAARDAREAAARDAKVEARDVKRTTVTATTATA
modifications: Glycine max
B7: uncharacterized protein LOC100306570 (protein)
chain: MASQSNTKSVHDFTVKDARGNNVNLADYKGKVLLIVNVASQCGLTNSNYTELNQLYEKYKGKGLEILAFPCNQFGAQEPGTNEEIVEFACTRFKAEFPIFDKVDVNGDNAAPLYKFLKSSKGGLFGDSIKWNFSKFLVDKDGNVVDRYAPTTSPLSIEKDIKKLLDA
B8: superoxide dismutase [Mn], mitochondrial (protein)
chain: MAARALLTRKTLATVLRNDAKPIIGVGITAAATHSRGLHVYTLPDLDYDYGALEPAISGDIMQLHHQKHHQTYITNYNKALEQLQDAIAKKDSSAVVKLQGAIKFNGGGHVNHSIFWKNLAPVREGGGEPPKGSLGWAIDTHFGSFEALIQKVNAEGAALQGSGWVWLGLDKELKRLVVETTANQDPLVTKGPNLVPLIGIDVWEHAYYLQYKNVRPDYLKNIWKVINWKYASEVYEKESS
modifications: Glycine max
notes: spot also identified as hypothetical protein GLYMA_04G221300
B9: probable fructokinase-4 (protein)
chain: MALNNGVPATGTGLIVSFGEMLIDFVPTVSGVSLAEAPGFLKAPGGAPANVAIAVSRLGGKAAFVGKLGDDEFGHMLAGILKENGVRADGINFDQGARTALAFVTLRADGEREFMFYRNPSADMLLKPEELNLELIRSAKVFHYGSISLIVEPCRSAHLKAMEVAKESGCLLSYDPNLRLPLWPSAEEARKQILSIWEKADLIKVSDAELEFLTGSDKIDDESALSLWHPNLKLLLVTLGEHGSRYYTKSFKGSVDAFHVNTVDTTGAGDSFVGALLAKIVDDQSILEDEPRLREVLKFANACGAITTTQKGAIPALPKEEAALKLIKGGS
B10: seed maturation protein PM34 (protein)
chain: MASGEQKFPPQQQQTQPGKEHAMTPVPQFTSPDYKPSNKLQGKIALVTGGDSGIGRAVCNLFALEGATVAFTYVKGHEDKDARDTLEMIKRAKTSDAKDPMAIASDLGYDENCKRVVDEVVSAYGCIDILVNNAAEQYECGTVEDIDEPRLERVFRTNIFSYFFMARHALKHMKEGSSIINTTSVNAYKGHAKLLDYTSTKGAIVAYTRGLALQLVSKGIRVNGVAPGPIWTPLIPASFKEEETAQFGAQVPMKRAGQPIEVAPSYVFLASNQCSSYITGQVLHPNGGTVVNG
modifications: Glycine max
notes: spot also identified as uncharacterized protein LOC100809384 and hypothetical protein GLYMA_10G155300
B11: 35 kDa seed maturation protein isoform X1 (protein)
chain: MASRQQFKEDRAEAAAKLAAKDIGDINRTNERDEGYDLHDEANFKQARAEAAAKLAAKDLEDANRLRDNTFNTWKEQHQHDENKPGVIGSMFRAAKEAVVGKPHHEEVYAKETKMGEYSDYATQKARETKQKAGEYTDYAAQKAKETKDYAAEKAKNAKDTTVQKAGEYKDYTAEKAKNAKDTTVQKAGEYKDYTAEKAIEGKDSAVGKLGELKESAADAAKRAMGFFTGGNKDQTREEEEETRRSMQEVRVQDKEYGTGRGTGEKLVIKMEESRPGAVADALKAANRAMDGDMEEEGVLHVERRREKM
B12: phosphoglycerate kinase, cytosolic (protein)
chain: MATKRSVGTLKEGDLKGKRVFVRVDLNVPLDDNLNITDDTRVRAAVPTIKYLTGYGAKVILSSHLGRPKGVTPKYSLKPLVPRLSQLLGIEVTMANDSIGEEVEKLVTQLPEGGVLLLENVRFYKEEEKNDPEFAKKLASLADLYVNDAFGTAHRAHASTEGVAKYLKPSVAGFLMQKELDYLVGAVSNPKRPFAAIVGGSKVSSKIGVIESLLEKVNVLLLGGGMIFTFYKAQGYSVGSSLVEEDKLSLATTLLEKAKAKGVSLLLPTDVVIADKFAADANSKTVPASSIPDGWMGLDIGPDSIKTFGEALDTTQTIIWNGPMGVFEFDKFATGTEAIAKKLAELSGKGVTTIIGGGDSVAAVEKVGLADKMSHISTGGGASLELLEGKQLPGVLALDDA
modifications: Glycine max
B13: seed maturation protein PM22 (protein)
chain: MSQLLDKAKNFVSEKVNDMAKPEASVTDVDFKRVSKDNVEYLAKVSVRNPYSTSIPICEINYSFKSASREIASGKIPDPGSLKAKDTTMVDVPVKVPYSILMSLAKDIGADWDIDYQLDLGLVIDVPVIGIFTIPLSQKGEIKLPTLSTMFA
B14: uncharacterized protein LOC100813859 (protein)
chain: MASEESQNKPPSEQSTTELITSAKLVAEAAQSALKSDSDKVDKAKVADAAGDLLDAAGKYGKLDDKQGIGQYVDKAADYLHNYQGDNTTAPSQPAESKGEESGGGLGGLANLAGGFFKK
B15: eukaryotic translation initiation factor 5A-2 (protein)
chain: MSDEEHHFESKADAGASKTYPQQAGTIRKNGYIVIKGRPCKVVEVSTSKTGKHGHAKCHFVGIDIFTAKKLEDIVPSSHNCDVPHVNRTDYQLIDIAEDGFLSLLTENGNTKDDLKLPTDESLLTQIKDGFAEGKDLVVSVMSAMGEEQICALKDIGPKN
modifications: Glycine max
notes: spot also identified as uncharacterized protein LOC100305510

System: IgE antibodies from soybean-allergic patients
Assay: Immunoblotting of two-dimensional electrophoresis pattern of soybean proteins with patient serum
Assay type: binding, human
Settings: spot in 2D electrophoresis gel of soybean proteins; patient serum compared with healthy subject serum
Description: Transfer to membrane was done using the following transfer system and transfer buffer. • Transfer system: XCell SureLock Mini-Cell and XCell II Blot Module (produced by Life Technologies) • Transfer buffer: NuPAGE Transfer Buffer (X20) (produced by Life Technologies), used in a form diluted 20-fold with milliQ water.
To be specific, proteins in the two-dimensional electrophoresis gels were transferred to a membrane (PVDF membrane) according to the following procedure. • (1) The PVDF membrane was immersed in 100% methanol followed by milliQ water, and then moved into the transfer buffer to hydrophilize the PVDF membrane. • (2) After sponge, filter paper, the gels treated by second-dimensional SDS-PAGE, the hydrophilized PVDF membrane, filter paper, and sponge were put in place in this order, the transfer system was energized at a constant voltage of 30 V for one hour.
Immunoblotting of the membrane was carried out using, as a primary antibody, a serum sample from a patient with a soybean allergy or a serum sample from a healthy subject.
Immunoblotting of the membrane was carried out according to the following procedure. • (1) The transferred membrane was shaken in a 5% skim milk/PBST solution (a PBS buffer containing 0.3% Tween 20 nonionic surfactant) at room temperature for one hour. • (2) The membrane was left to stand in a solution of 3% primary antibody serum in 5% skim milk/PBST at room temperature for one hour. • (3) The membrane was washed with a PBST solution (5 min.×3 times). • (4) The membrane was left to stand in a 1:2500 dilution of the secondary antibody, anti-human IgE-HRP (horseradish peroxidase), with a 3% skim milk/PBST solution at room temperature for one hour. • (5) The membrane was washed with a PBST solution (5 min.×3 times). • (6) The membrane was left to stand in Pierce Western Blotting Substrate Plus (produced by Thermo Fisher Scientific) for 5 minutes.
The membrane obtained through the foregoing series of treatments was subjected to fluorescent image scanning on Typhoon 9400 (produced by GE).
The immunoblots obtained with the serum from the soybean-allergic patient were compared with those obtained with the control serum from the healthy subject.

Row | specific binding to IgE antibodies from soybean-allergic patients | Molecule
1 | specific binding | B1
2 | specific binding | B2
3 | specific binding | B3
4 | specific binding | B4
5 | specific binding | B5
6 | specific binding | B6
7 | specific binding | B7
8 | specific binding | B8
9 | specific binding | B9
10 | specific binding | B10
11 | specific binding | B11
12 | specific binding | B12
13 | specific binding | B13
14 | specific binding | B14
15 | specific binding | B15
